Paper PMC6620605 (Current biology : CB, 2019)

Biological target: T1, 6x His-SEPT9 (human septin 9, isoform 1 / isoform a) (human, UniProt Q9UHD8-1 1-586)
T1 sequence (looked up): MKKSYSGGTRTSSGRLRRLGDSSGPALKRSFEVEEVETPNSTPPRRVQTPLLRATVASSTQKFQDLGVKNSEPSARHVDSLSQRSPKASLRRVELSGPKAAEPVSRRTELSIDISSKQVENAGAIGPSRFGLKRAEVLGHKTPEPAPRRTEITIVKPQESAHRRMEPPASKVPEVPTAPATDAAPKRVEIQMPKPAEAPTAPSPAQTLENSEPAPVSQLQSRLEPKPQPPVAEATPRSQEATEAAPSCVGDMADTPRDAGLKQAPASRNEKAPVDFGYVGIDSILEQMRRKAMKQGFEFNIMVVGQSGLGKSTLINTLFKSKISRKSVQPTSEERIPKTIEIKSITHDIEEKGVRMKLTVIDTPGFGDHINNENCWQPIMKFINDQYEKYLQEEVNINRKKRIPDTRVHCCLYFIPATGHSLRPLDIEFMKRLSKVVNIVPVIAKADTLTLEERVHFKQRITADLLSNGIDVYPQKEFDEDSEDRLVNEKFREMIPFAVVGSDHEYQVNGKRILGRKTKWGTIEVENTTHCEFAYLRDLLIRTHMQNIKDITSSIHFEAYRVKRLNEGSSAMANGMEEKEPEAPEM
Experiment: pull-down

binding result: binds
B1: GST-TSG101 UEV (TSG101 aa 1-145) (domain or fragment, human, UniProt Q99816-1 1-145, looked up)
chain: MAVSESQLKKMVSKYKYRDLTVRETVNVITLYKDLKPVLDSYVFNDGSSRELMNLTGTIPVPYRGNTYNIPICLWLLDTYPYNPPICFVKPTSSMTIKTGKHVDANGKIYLPYLHEWKHPQSDLLGLIQVMIVVFGDEPPVFSRP
